Experiments:
[1] = Quantum yield of fluorochrome-bearing peptides and PN's; assay type: physicochemical; details: means±1 S.D.
Text: (The p values showing significances are in Figure S2 in File S1). […] PEG attachment increased quantum yields in all cases, but as discussed below the magnitude of PEG generated improvement varied with the fluorochrome chosen. A mechanism for the PEG improvement of quantum yield is fluorochrome shielding, or the blocking of fluorochrome-fluorochrome interactions that result in quenching.
However, the magnitude of these benefits varied with the fluorochrome selected. […] Previous studies indicated PEGylated, fluorochrome-bearing peptides have absorption spectra in PBS similar to their unstacked absorption spectra in methanol. […] It appears that longer wavelength fluorochromes have stronger fluorochrome/fluorochrome stacking interactions, which result in more quenching, which is blocked by PEG and which gives rise to larger increases in quantum yield.

[2] = tested on: HT-29 cells; assay: Non-specific binding (NSB) to HT-29 cells by FACS; assay type: cell-based, human; details: 100 μL of nanoprobes (2 μM) added to 100 μl 2% FBS/DPBS, 30 min at 37 °C, means±1 S.D.
Text: We next examined the non-specific binding (NSB) of PN’s to HT-29 cells based on the assumption that NSB minimization will correlate with a desirable minimization of post-IV injection retention. As noted above, after diagnostic drugs generate their added information, retention can only increase the risks of delayed toxicity. The attachment of PEG decreased the non-specific binding (NSB) to HT-29 cells, scored as the percent of cells above the cutoff for unstained cells seen with FACS ( Table 1 , column 7).
PN and peptide binding to cells (effect of PEGylation on NSB): HT-29, a human colon carcinoma cell line, was from the American Tissue Culture Collection and maintained according to their instructions. Cells were seeded on 24-well plates at 5X10^5 cells/well in culture medium (RPMI 1640 with 10% FBS) the day before the assay. The day of assay, medium was removed, wells rinsed twice with DPBS (+Ca, +Mg), and 100 μl of 2% FBS / DPBS (+Ca, +Mg) added. 100 μL of Nanoprobes (2 μM) in DPBS (+Ca, +Mg) was added to cells and incubated for 30min at 37 °C. (Probe concentrations were determined spectrophotometrically (783 nm, extinction coefficient of 314 471 cm^-1 M^-1 for IR-783; 497 nm, extinction coefficient of 68 000 cm^-1 M^-1 for Fluorescein; 545 nm, extinction coefficient of 150 000 cm^-1 M^-1 for Cy3). Cells were detached by Trypsin/EDTA and assayed for fluorescence by FACS (BD 7 laser LSR2 for nanoprobes with IR-783; BD 3 laser LSR2 for nanoprobes with Fluorescein or Cy3).
Figure S4: Effect of PEGylation on non-specific binding to cells by single channel FACS. […] Arrows indicates the cutoff for unstained cells.

[3] = Probe size (volume) by FPLC calibrated with globular protein standards; assay type: physicochemical; details: for Volume FPLC, globular protein equivalent molecular volume: Superdex 200 10/300GL, 0.05 M sodium phosphate, 0.1 M NaCl (0.1% Tween, pH 7.2), 0.8 ml/min, calibrated with globular protein standards; for Volume FPLC Dia. (diameter): globular protein equivalent volume from FPLC converted to spherical diameter by formula (ref 15)
Text: FPLC chromatograms are shown for PN’s bearing the IR-783 fluorochrome with PEG’s ranging from 2 to 40 kDa ( Figure 2A ). FPLC was calibrated with globular protein standards, and globular protein equivalent molecular volumes (in kDa) were obtained ( Table 1 , column 5). Next, these globular protein equivalent molecular volumes were converted to PN diameters in nm using the relationship: [drawing 1] where M is the molecular weight of a globular protein expressed in daltons. PN diameters ranged from 3.0 to 11.7 nm, which means PN’s can be smaller or larger than albumin (MW = 67 kDa; diameter = 5.4 nm, by the formula above). Thus Table 1 column 5 gives the PN volumes obtained from FPLC expressed in two ways: (i) as the molecular weight in kDa of globular proteins with equivalent volumes, permitting size comparison of PN’s to proteins, and, (ii) as spherical diameters (“Dia.”) in nm, permitting size comparisons of a PN to relative to other nanomaterials. We confirmed the sizes obtained with FPLC by measuring the size of PN(783)11.7 by dynamic light scattering (11.7 nm).
The mass spec of low molecular weight (MW) materials were obtained by MS-ESI Micromass (Waters) and high MW molecules were determined through MALDI-TOF analyses at the Tufts University Core Facility. RP-HPLC (Varian ProStar detector and delivery modules) employed an eluant A (0.1% TFA/water) and eluant B (0.1% TFA and 9.9% water in acetonitrile). Probe size (volume) was determined by FPLC using an ÄKTA Purifier 10 and SuperdexTM 200 10/300GL column (GE Healthcare) with a running buffer of 0.05 M sodium phosphate, 0.1 M NaCl (0.1% Tween, pH 7.2) and flow rate of 0.8 ml/min. Standards (GE Healthcare) were Ferritin, Ribonuclease A, Carbonic Anhydrase, and Conalbumin and Blue Dextran 2000. To obtain probe volumes, Mr (apparent molecular weight based on size exclusion retention) was plotted versus Kav. [drawing 7] , Vt = total volume, Ve = elution volume, Vo = void volume.
PN and peptide characterization: The mass spec of low molecular weights (MW) were obtained by MS-ESI Micromass (Waters) and high MW molecules were determined through MALDI-TOF analyses at the Tufts University Core Facility. RP-HPLC (Varian ProStar detector and delivery modules) employed an eluant A (0.1% TFA /water) and eluant B (0.1% TFA and 9.9% water in acetonitrile). […] Standards (GE Healthcare) were Ferritin, Ribonuclease A, Carbonic Anhydrase, and Conalbumin and Blue Dextran 2000. To obtain probe volumes, Mr (apparent molecular weight based on size exclusion retention) was plotted versus Kav. [picture] , Vt = total volume, Ve = elution volume, Vo = void volume.

[4] = Circulating form of PN's: FPLC of sera of injected mice; assay type: in vivo; details: 20 nmoles IV tail vein, nude mice, FPLC at 783 nm
Method: To see if the variable PN size could be translated into tunable pharmacokinetics, it was essential to first establish that PN’s circulated at PEG-determined, pre-injection dimensions. Mice were injected with PN’s and FPLC chromatograms of serum samples, taken at various times post injection ( Figures 2D, 2E and 2F ), compared with pre-injection PN samples. By using PN’s absorbing at 783 nm, chromatograms from the sera of injected mice reflect this PN, since there are no compounds in serum that absorb at this wavelength. […] Similarly, peaks for PN(783)6.1 ( Figure 2E ) and PN(783)4.3 ( Figure 2F ) where identical for pre-injection samples and for nanoprobes in the sera of injected mice. Thus, molecular weight of the PEG chosen determines PN dimensions in vitro and those dimensions are maintained after injection.
(§1) At the indicated time, 50 µl of blood was collected with microhematocrit capillary tube (Fisher Scientific) from the tail, and transferred to Eppendorf microcentrifuge tube with anticoagulant (EDTA) coating (Fisher Scientific). Tubes were centrifuged (5000 rpm for 5 min), and the supernatant was injected to the FPLC, a ÄKTA Purifier 10 with SuperdexTM 200 10/300GL column.
as §1, with “μl” for “µl”

Substance	Quant. Yield [1]	Cell NSB: percent of HT-29 cells above the cutoff for unstained cells [2]	Volume FPLC, globular protein equivalent molecular volume [3]	Circulating size: FPLC peaks of serum samples after injection versus pre-injection sample [4]	Volume FPLC Dia. (diameter) [3]
(DOTA)Lys(PEG 30 kDa)-Cys(Fl) [PN(497)10.0, PEG-like Nanoprobe: 30 kDa PEG, fluorescein, DOTA peptide]	0.60±0.08	0.1% ±0.1%	435 kDa		
(DOTA)Lys(PEG 30 kDa)-Cys(IR-783) [PN(783)10.0, PEG-like Nanoprobe: 30 kDa PEG, IR-783 fluorochrome, DOTA peptide]	0.16±0.04	18±1%	435.4 kDa	circulates at its pre-injection size	10.0 nm
(DOTA)Lys(PEG 5 kDa)-Cys(IR-783) [PN(783)4.3, PEG-like Nanoprobe: 5 kDa PEG, IR-783 fluorochrome, DOTA peptide]	0.16±0.03	20±1%	35.2 kDa	identical	4.3 nm

— publication PMC4004541, “PEG-Like Nanoprobes: Multimodal, Pharmacokinetically and Optically Tunable Nanomaterials” (PLoS ONE, 2014)
